Results as given in US20220372114A1 (CURIA IP, published 2022).
“And” between values parts separate entries of the source, which are not always exact repeats. Identical values can stand only once.

B1: 10-B13-A (human Fc IgG2 chimera) (antibody, V domains shown)
VH: QVQLQQSGAELVKPGASVKISCKASGYAFSNYWMNWVKQRPGKGLEWIGQIYPGDGDTNYNGNFKGKATLTADKSSSTAYIQLSSLTSEDSAVYFCGRGFIATVVEVFDHWGLGTTLTVSS
VL: DIQMTQTTSSLSASLGDRVTISCRASQDISNYLNWYQQKPDGTVKLLIYYTSRLQSGVPSRFSGSGTGTDYSLTISNLEQEDIATYFCQQGNTLPWTFGGGTKLEIK
B2: 10-B13-A (antibody, V domains shown)
VH: B1 VH
VL: B1 VL

What was measured:
[1] = biological target: SARS-CoV-1 spike on pseudovirus (SARS-CoV-1, UniProt P59594 14-1255); experiment: cell-based or functional assay
SARS-CoV-1 spike trimer [2] = biological target: T1, SARS-CoV-1 spike trimer (SARS-CoV-1, UniProt P59594 14-1195); experiment: ELISA, plate-coated SARS-CoV-1 spike
SARS-CoV-1 spike trimer [3] = biological target: T1, SARS-CoV-1 spike trimer; experiment: ELISA, plate-coated SARS-CoV-1 spike, purified mouse antibody

Binder	IC50, SARS-CoV-1 pseudovirus ACE2+TMPRSS2+ target cell infection assay [1]	EC50 (SARS-CoV-1 spike trimer [2])	EC50 (SARS-CoV-1 spike trimer [3])
B1	~33 ug/ml and ~220 nM	–	–
B2	–	~1 nM	0.96 nM
